Measured values as given in patent publication US20160289299A1.

Experiments:
[1] = target: ^superFVa (recombinant super factor five, thrombin-activated) (human) (UniProt P12259); assay: cell-based or functional assay
[2] = target: recombinant human wild-type FVa (UniProt P12259); assay: cell-based or functional assay
[3] = test system: ^superFVa (recombinant super factor five, thrombin-activated)
[4] = target: recombinant human wild-type FVa (UniProt P12259)

Chain of ^superFVa (recombinant super factor five, thrombin-activated) (chain, as listed by the source): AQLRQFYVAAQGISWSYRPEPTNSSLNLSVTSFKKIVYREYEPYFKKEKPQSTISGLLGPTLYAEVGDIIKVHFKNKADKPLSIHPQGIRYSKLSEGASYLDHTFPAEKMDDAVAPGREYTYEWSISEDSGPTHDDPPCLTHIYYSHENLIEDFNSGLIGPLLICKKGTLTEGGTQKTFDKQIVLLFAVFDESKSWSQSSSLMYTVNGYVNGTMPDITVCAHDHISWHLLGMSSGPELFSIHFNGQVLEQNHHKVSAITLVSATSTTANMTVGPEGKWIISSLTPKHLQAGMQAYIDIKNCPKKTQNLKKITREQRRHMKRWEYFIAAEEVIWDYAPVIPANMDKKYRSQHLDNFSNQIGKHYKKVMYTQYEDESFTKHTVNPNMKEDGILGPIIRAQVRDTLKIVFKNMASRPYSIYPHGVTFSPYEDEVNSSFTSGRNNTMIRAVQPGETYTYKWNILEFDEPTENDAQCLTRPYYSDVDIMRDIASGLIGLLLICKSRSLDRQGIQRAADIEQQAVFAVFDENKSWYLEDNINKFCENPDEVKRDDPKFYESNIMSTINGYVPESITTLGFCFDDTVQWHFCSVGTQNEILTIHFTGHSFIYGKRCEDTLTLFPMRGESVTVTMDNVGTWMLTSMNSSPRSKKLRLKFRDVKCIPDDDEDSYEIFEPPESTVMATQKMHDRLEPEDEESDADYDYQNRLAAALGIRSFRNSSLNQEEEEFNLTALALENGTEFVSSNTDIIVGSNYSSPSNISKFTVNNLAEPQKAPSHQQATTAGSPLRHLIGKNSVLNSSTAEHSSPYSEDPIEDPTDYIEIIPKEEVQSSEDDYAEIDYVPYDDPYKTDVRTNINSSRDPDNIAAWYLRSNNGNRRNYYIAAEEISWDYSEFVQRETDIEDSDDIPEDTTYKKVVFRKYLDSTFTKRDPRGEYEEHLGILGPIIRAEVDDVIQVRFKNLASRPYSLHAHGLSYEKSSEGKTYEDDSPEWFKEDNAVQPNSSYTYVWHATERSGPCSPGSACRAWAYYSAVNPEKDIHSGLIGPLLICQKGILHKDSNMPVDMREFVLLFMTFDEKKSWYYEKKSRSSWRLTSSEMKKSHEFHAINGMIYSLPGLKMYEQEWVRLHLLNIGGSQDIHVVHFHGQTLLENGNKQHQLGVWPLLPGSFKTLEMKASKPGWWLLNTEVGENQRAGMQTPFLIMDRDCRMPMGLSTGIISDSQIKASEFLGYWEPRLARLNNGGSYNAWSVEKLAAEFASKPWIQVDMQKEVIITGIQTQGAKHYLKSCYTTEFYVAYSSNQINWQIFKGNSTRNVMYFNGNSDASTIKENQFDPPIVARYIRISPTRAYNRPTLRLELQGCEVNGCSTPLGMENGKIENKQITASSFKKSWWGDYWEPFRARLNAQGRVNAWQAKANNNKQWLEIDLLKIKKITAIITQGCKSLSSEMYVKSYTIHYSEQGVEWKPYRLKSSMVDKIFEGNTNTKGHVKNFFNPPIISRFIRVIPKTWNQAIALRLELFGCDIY

ex vivo whole blood aPTT after intravenous APC (0.5 mg/kg) in Balb/c mice [1] [s] | ex vivo whole blood aPTT after intravenous APC (0.5 mg/kg) in Balb/c mice [2] [s] | Substance | ETP restored in human or murine plasma in the presence of APC [3] | aPTT in human plasma with APC at 0.05 U/mL FVa variant [3] | aPTT in murine plasma with human APC at 5 U/mL FVa variant [3] | aPTT normalisation in human plasma with 10 nM APC, concentration relative to FVa [3] | ETP restored in human or murine plasma in the presence of APC [4] | aPTT in human plasma with APC at 0.05 U/mL FVa variant [4] | aPTT in murine plasma with human APC at 5 U/mL FVa variant [4]
30 | 50 | recombinant murine Activated Protein C (from UniProt P33587 42-460) (enzyme) |  |  |  |  |  |  | 
 |  | recombinant human Activated Protein C (Xigris) | Only ^superFVa restored ETP to ˜90-100% in human or murine plasma at concentrations where FVa did not show effects | At 0.05 U/mL FVa variants, ^superFVa fully corrected the aPTT | At 5 U/mL FVa variants ^superFVa fully corrected the aPTT | in human plasma ^superFVa normalized the aPTT at 100-fold lower concentrations compared to FVa | at concentrations where FVa did not show effects | FVa shortened the aPTT only from ˜100 to 80 seconds | FVa shortened the aPTT only from ˜100 to 70 seconds
